“And” between values parts separate entries of the source, which are not always exact repeats. Equal values may be shown once.
Molecular target: the molecule itself
Assay: dimer-tetramer equilibrium assay

B1: recombinant ALDOB WT (aldolase B) (enzyme, UniProt Q91Y97 1-364, looked up)
chain: MAHRFPALTPEQKKELSEIAQRIVANGKGILAADESVGTMGNRLQRIKVENTEENRRQFRELLFSVDNSISQSIGGVILFHETLYQKDSQGNLFRNVLKEKGIVVGIKLDQGGAPLAGTNKETTIQGLDGLSERCAQYKKDGVDFGKWRAVLRIADQCPSSLAIQENANALARYASICQQNGLVPIVEPEVLPDGDHDLEHCQYVSEKVLAAVYKALNDHHVYLEGTLLKPNMVTAGHACTKKYTPEQVAMATVTALHRTVPAAVPGICFLSGGMSEEDATLNLNAINRCPLPRPWKLSFSYGRALQASALAAWGGKAANKKATQEAFMKRAMANCQAAQGQYVHTGSSGAAATQSLFTASYTY
B1 was tested, and the “stoichiometry N” value was 2 and 4.
